B1: TPP-66150 (Fc fusion)
chain 1: DVQLVESGGGVVQAGGSLSISCAASGGSLSNYVLGWFRQAPGKEREFVAAINWRGDITIGPPNVEGRFTISRDNAKNTGYLQMNSLAPDDTALYYCGAGTPLNPGAYIYDWSYDYWGRGTLVTVSSDKTHTCPPCPAPEAAGGPSVFLFPPKPKDTLMISRTPEVTCVVVDVSQEDPEVQFNWYVDGVEVHNAKTKPREEQFNSTYRVVSVLTVLHQDWLNGKEYKCKVSNKGLPSSIEKTISKAKGQPREPQVYTLPPCQEEMTKNQVSLWCLVKGFYPSDIAVEWESNGQPENNYKTTPPVLDSDGSFFLYSKLTVDKSRWQEGNVFSCSVMHEALHNHYTQKSLSLSLG
chain 2: DVQLVESGGGVVQAGGSLSISCAASGGSLSNYVLGWFRQAPGKEREFVAAINWRGDITIGPPNVEGRFTISRDNAKNTGYLQMNSLAPDDTALYYCGAGTPLNPGAYIYDWSYDYWGRGTLVTVSSDKTHTCPPCPAPEAAGGPSVFLFPPKPKDTLMISRTPEVTCVVVDVSQEDPEVQFNWYVDGVEVHNAKTKPREEQFNSTYRVVSVLTVLHQDWLNGKEYKCKVSNKGLPSSIEKTISKAKGQPREPQVCTLPPSQEEMTKNQVSLSCAVKGFYPSDIAVEWESNGQPENNYKTTPPVLDSDGSFFLVSKLTVDKSRWQEGNVFSCSVMHEALHNRFTQKSLSLSLGGGGGSGGGGSGGGGSGGGGSGGGGSGGGGSGGGGSDLGKKLLEAARAGQDDEVRELLKAGADVNAKDYFSHTPLHLAARNGHLKIVEVLLKAGADVNAKDFAGKTPLHLAANEGHLEIVEVLLKAGADVNAQDIFGKTPADIAADAGHEDIAEVLQKAA
B2: TPP-66177 (Fc fusion)
chain: DVQLVESGGGVVQAGGSLSISCAASGGSLSNYVLGWFRQAPGKEREFVAAINWRGDITIGPPNVEGRFTISRDNAKNTGYLQMNSLAPDDTALYYCGAGTPLNPGAYIYDWSYDYWGRGTLVTVSSDKTHTCPSCPAPEAAGGPSVFLFPPKPKDTLMISRTPEVTCVVVDVSQEDPEVQFNWYVDGVEVHNAKTKPREEQFNSTYRVVSVLTVLHQDWLNGKEYKCKVSNKGLPSSIEKTISKAKGQPREPQVYTLPPSQEEMTKNQVSLTCLVKGFYPSDIAVEWESNGQPENNYKTTPPVLDSDGSFFLYSKLTVDKSRWQEGNVFSCSVMHEALHNHYTQKSLSLSLGGGGGSGGGGSGGGGSGGGGSGGGGSGGGGSGGGGSEVQLVESGGGVVQPGGSLRLSCAASGFTFRSFGMSWVRQAPGKGPEWVSSISGSGSDTLYADSVKGRFTISRDNSKNTLYLQMNSLRPEDTALYYCTIGGSLSRSSQGTLVTVSSA
notes: Symmetrical IgG4 FALA Fc fusion without knob-in-hole mutations, two C-terminal ALB23002 via 35GS; also called symmetrical ALB23002 ISVD-Fc polypeptide

Tests used:
[1] = biological target: T1, Human serum albumin (HSA; Sigma-Aldrich Cat No. A8763) (human, UniProt P02768 25-609); test: SPR Biacore 8K+, HSA on C1 chip, pH 7.4, off-rate column
[2] = biological target: T2, Mouse serum albumin (MSA; Albumin Bioscience Cat No. 2601) (mouse, UniProt P07724 25-608); test: SPR Biacore 8K+, MSA on C1 chip, pH 7.4, off-rate column
[3] = biological target: T3, Human FcRn (biotinylated human FcRn) (human, UniProt P61769 21-119); test: SPR Biacore 8K+, biotinylated hFcRn on SA chip (~500-600 RU), pH 6.0, bivalent analyte fit;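 also: analytes were Fc proteins binding to biotinylated human FcRn captured on a Series S streptavidin sensor chip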
T3 construct: Biotinylated human FcRn captured on a Series S Sensor Chip SA; also called human neonatal Fc receptor; hFcRn

[4] = biological target: T3, Human FcRn (biotinylated human FcRn); test: SPR Biacore 8K+, biotinylated hFcRn on SA chip (~500-600 RU), pH 6.0, bivalent analyte fit (KD1)
[5] = biological target: T3, Human FcRn (biotinylated human FcRn); test: SPR Biacore 8K+, biotinylated hFcRn on SA chip (~500-600 RU), pH 6.0, bivalent analyte fit (ka1)
[6] = biological target: T3, Human FcRn (biotinylated human FcRn); test: SPR Biacore 8K+, biotinylated hFcRn on SA chip (~500-600 RU), pH 6.0, bivalent analyte fit (kd1)
[7] = biological target: T1, Human serum albumin (HSA; Sigma-Aldrich …); test: SPR Biacore 8K+, HSA on C1 chip, pH 7.4, bivalent analyte fit (KD1)
[8] = biological target: T1, Human serum albumin (HSA; Sigma-Aldrich …); test: SPR Biacore 8K+, HSA on C1 chip, pH 7.4, bivalent analyte fit (ka1)
[9] = biological target: T1, Human serum albumin (HSA; Sigma-Aldrich …); test: SPR Biacore 8K+, HSA on C1 chip, pH 7.4, bivalent analyte fit (kd1)
[10] = biological target: T2, Mouse serum albumin (MSA; Albumin …); test: SPR Biacore 8K+, MSA on C1 chip, pH 7.4, bivalent analyte fit (KD1)
[11] = biological target: T2, Mouse serum albumin (MSA; Albumin …); test: SPR Biacore 8K+, MSA on C1 chip, pH 7.4, bivalent analyte fit (ka1)
[12] = biological target: T2, Mouse serum albumin (MSA; Albumin …); test: SPR Biacore 8K+, MSA on C1 chip, pH 7.4, bivalent analyte fit (kd1)

Binder | binding result [1] | binding result [2] | KD2 [3] [M] | ka2 [3] | kd2 [3] [s⁻¹] | Kd [4] [nM] | kon [5] [M⁻¹ s⁻¹] | koff [6] [s⁻¹] | Kd [7] [nM] | kon [8] [M⁻¹ s⁻¹] | koff [9] [s⁻¹] | Kd [10] [nM] | kon [11] [M⁻¹ s⁻¹] | koff [12] [s⁻¹]
B1 | binds | binds | 6.37 | 3.02e-05 1/RUs | 0.000192 | 1160 | 73900 | 0.0859 | – | – | – | – | – | –
B2 | – | – | 3.64 | 4.07e-05 1/RUs | 0.000148 | 1690 | 51500 | 0.0872 | 14.3 | 54300 | 0.000776 | 8.8 | 45900 | 0.000404
